One series deals with Sprague Dawley rats. The series is described as follows: Injection site reactions (gross ISR incidence, lesion area) after intradermal injection of zoledronic acid with or without rHuPH20. Conditions: for shift of half maximal effect (EC50) of ZA concentration vs lesion area curve: with vs without 10,000 U/mL rHuPH20. It counts as in vivo, rat. As to the method: A rodent model of local injection site injury caused by ZA injection was employed for the study. […] Injection into the dermis facilitates external visualization and assessment of the irritant.
Nine to ten week old female Sprague Dawley rats, having approximate body weight of 200-250 grams, were employed for the study. One day prior to injection, rats were shaved and hair on the back and flank area were removed by Nair® cream (exposure less than 1 min to depilation cream) followed by deep wash with warm tap water. On the day of dosing, all rats were injected intradermally in flank area (one or two injection spots per side), with 0.1 or 0.2 mL as indicated of zoledronic acid solution, with or without rHuPH20, at each corresponding concentration as shown in study design table. Injection site appearance was observed and quantified by blind assessment each day following the injection until the end of the study, at which time animals were sacrificed and the skin around the dosing area as well as a part of the skin that was not effected by the dosing were collected and fixed in 10% neutral buffered formalin (NBF) and further embedded in paraffin, 5 μm sections were cut for H&E stain and histopathology evaluation.
Lesion area was calculated by the following formula: W×L×¼π. Quantitative results were analyzed using one-way analysis of variance (ANOVA) method, followed by Dunnett's comparison method (Prizm 4 program). The probability values of less than 0.05 (two-tailed) were used as the critical level of significance for all tests. Groups with a sample size of two were excluded from analysis. If the sample size was 2 for the control group, there were no statistical analyses at that interval for any of the groups. Histopathologic findings were characterized by semi-quantitative analysis of necrosis and infiltration in the skin tissue. The incidences of each finding were compared with control groups by Chi-square test.
Prior to ZA intradermal injection, rats were randomized by body weight into 7 groups of 1 or 2 rats per group (Table 2). Rats were injected with either 0.1 mL or 0.2 mL of each corresponding concentration intradermally at two separate locations on each shaved flank side for a total of 4 injections for each animal. Injection sites were observed daily post-injection for four days. Pictures of injection site reaction (ISR) area were captured by digital camera and lesion area was scored for induration, erythema, or ulceration. Two perpendicular diameters (width & length) of injection site lesion were measured by microcaliper. The lesion area was defined as the area bounded by the outer edge of the erythemic zone. Upon completion of the study, the animals were euthanized and skin at the injection site and from an untreated area of the back of the rat were excised, mounted flat onto a piece of cardboard, and placed in 10% NBF.
A series of experiments were conducted in which various dosing concentrations of rHuPH20 were tested for the ability to reduce acute injection site lesions. Prior to ZA intra-dermal injection, rats were randomized by body weight into 11 groups of 2 rats per group. Rats were injected intradermally with 0.1 mL of each co-formulated solution as shown in Table 5 and observed daily with ISR development assessed as in Section B. Four days after injection, rats were sacrificed and the skin at the injection site as well as untreated skin from the back was excised, mounted flat onto a piece of cardboard, and placed in 10% NBF.
Prior to ZA intra-dermal injection, rats were randomized by body weight into 6 groups of 3 rats per group (Table 6). Rats were intradermally injected with 0.1 mL of each corresponding co-formulated solution at two separate locations, two on each shaved flank side, for a total of 4 injections for each animal. Injection sites were observed daily with ISR development assessed as in Section B for 6 days. […]

Series [1] is described as follows: Hyaluronidase activity microturbidity (turbidometric) assay. It counts as biochemical. Conditions: purified soluble rHuPH20 (Gen1, 5 L bioreactor); USP reference standard. Here is the method: Hyaluronidase activity can be assessed using methods well known in the art. In one example, activity is measured using a microturbidity assay. This is based on the formation of an insoluble precipitate when hyaluronic acid binds with serum albumin. The activity is measured by incubating hyaluronidase with sodium hyaluronate (hyaluronic acid) for a set period of time (e.g. 10 minutes) and then precipitating the undigested sodium hyaluronate with the addition of acidified serum albumin. The turbidity of the resulting sample is measured at 640 nm after an additional development period. […] Following incubation with hyaluronidase, the residual biotinylated hyaluronic acid substrate is detected using an avidin-peroxidase reaction, and compared to that obtained following reaction with hyaluronidase standards of known activity.
Hyaluronidase activity of soluble rHuPH20 in samples such as cell cultures, purification fractions and purified solutions was determined using a turbidometric assay, which based on the formation of an insoluble precipitate when hyaluronic acid binds with serum albumin. The activity is measured by incubating soluble rHuPH20 with sodium hyaluronate (hyaluronic acid) for a set period of time (10 minutes) and then precipitating the undigested sodium hyaluronate with the addition of acidified serum albumin. […]

The record followed here is patent publication US20090311237A1, “Combination therapy using a soluble hyaluronidase and a bisphosphonate” (priority 2008, published 2009).

B1: rHuPH20: soluble form of human PH20 hyaluronidase recombinantly expressed in Chinese Hamster Ovary (CHO) cells (protein, listed as Homo sapiens)
chain: LNFRAPPVIPNVPFLWAWNAPSEFCLGKFDEPLDMSLFSFIGSPRINATGQGVTIFYVDRLGYYPYIDSITGVTVNGGIPQKISLQDHLDKAKKDITFYMPVDNLGMAVIDWEEWRPTWARNWKPKDVYKNRSIELVQQQNVQLSLTEATEKAKQEFEKAGKDFLVETIKLGKLLRPNHLWGYYLFPDCYNHHYKKPGYNGSCFNVEIKRNDDLSWLWNESTALYPSIYLNTQQSPVAATLYVRNRVREAIRVSKIPDAKSPLPVFAYTRIVFTDQVLKFLSQDELVYTFGETVALGASGIVIWGTLSIMRSMKSCLLLDNYMETILNPYIINVTLAAKMCSQVLCQEQGVCIRKNWNSSDYLHLNPDNFAIQLEKGGKFTVRGKPTLEDLEQFSEKFYCSCYSTLSCKEKADVKDTDAVDVCIADGVCIDAFLKPPMETEEPQIFY
modifications: soluble rHuPH20 1-447
notes: soluble form of human PH20 hyaluronidase recombinantly expressed in Chinese Hamster Ovary (CHO) cells
In the case of B1, the “rHuPH20 concentration with maximal effect on ISR formation” value in the series on Sprague Dawley rats (rat ID model, preliminary experiments) was 10,000 U/mL. Moreover, the “suppression of injection site lesion formation” value with Sprague Dawley rats (rat ID, 10,000 U/mL rHuPH20 co-formulated with ZA up to 0.05 mg/mL) is “complete suppression”. Also, the “threshold of rHuPH20 in lesion area reduction” value in the series with Sprague Dawley rats (rat ID, all ZA concentrations tested (0.05 to 0.4 mg/ml)) was determined as 100 U/mL. For the same molecule, the “rHuPH20 concentration at which maximal activity was reached” value in the series on Sprague Dawley rats (rat ID, regardless of ZA concentration (0.05 to 0.4 mg/ml)) was 1000 U/mL. Besides, the “shift of half maximal effect (EC50) of ZA concentration vs lesion area curve” value in the series on Sprague Dawley rats (rat ID, day 2) is given as “approximately 2.4 fold”; with Sprague Dawley rats (rat ID, day 3) it was around 3.3 fold; with Sprague Dawley rats (rat ID, day 4), around 5.7 fold. Further, the specific activity in series [1] is > 65,000 USP Units/mg protein.
